The target of assay [1] is TSHR with Arg255 mutated to Ala, expressed in CHO cells (human) (UniProt P16473). Briefly: cell-based or functional assay.
In assay [2] the target is TSHR (thyroid stimulating hormone receptor), full length human (human) (UniProt P16473). Description: negative control; competitor ^125I-K1-70 IgG, TSHR coated tubes; 1 µg/mL in HBD.
Assay [3] has the same target. Briefly: negative control; competitor ^125I-K1-70 IgG, TSHR coated tubes; 1 µg/mL in assay buffer.
Assay [4] concerns the target TSH receptor (TSHR) coated on tubes (human) (UniProt P16473). Briefly: inhibition of 125I-K1-70 IgG binding to TSHR coated tubes; negative control 0.001 µg/mL in assay buffer.
In assay [5] the target is human thyroid stimulating hormone receptor (TSHR), full length (human) (UniProt P16473). Briefly: 125I-K1-70 Fab (competitor) binding to TSHR coated tubes; negative control MAb 0.001 µg/mL in HBD serum.
Assay [6] addresses human TSH receptor (full length) coated on ELISA plate wells (human) (UniProt P16473). Briefly: TSH-biotin binding inhibition ELISA, TSHR coated wells; 0.1 µg/mL in assay buffer + 100 µg/mL 5B3 IgG; negative control MAb.
Assay [7] concerns the target TSH receptor (full length human TSHR) (human) (UniProt P16473). Briefly: competition ELISA: inhibition of M22 Fab-peroxidase (competitor) binding to TSHR coated wells; negative control at 0.01 µg/mL diluted in assay buffer.
Assay [8] deals with human TSHR on transfected CHO cells (human, UniProt P16473 22-764). Description: cell-based or functional assay.
Assay [9] addresses thyroid stimulating hormone receptor (TSHR), full length human TSHR (human) (UniProt P16473). Description: TSH-biotin competition ELISA, TSHR coated wells; 10 µg/mL in assay buffer.
Assay [10] deals with full length wild type human TSHR (human) (UniProt P16473). Description: TSHR260-AP bridge ELISA, wild type TSHR on wells; IgG at 0.5 µg/mL in HBD.
The target in assay [11] is TSHR with Lys183 mutated to Asp expressed in CHO cells (human) (UniProt P16473). Description: cell-based or functional assay.
For assay [12], the target named is TSHR with Ser281 mutated to Ala, expressed in CHO cells (human) (UniProt P16473). Description: cell-based or functional assay.
Assay [13] concerns the target TSHR with Trp258 mutated to Ala (human) (UniProt P16473). Description: cell-based or functional assay.
Assay [14] concerns the target TSHR with Phe130 mutated to Ala, expressed in CHO cells (human) (UniProt P16473). Briefly: cell-based or functional assay.
The target in assay [15] is wild type TSHR expressed in CHO cells (human) (UniProt P16473). Description: cell-based or functional assay.
Assay [16] has as its target human thyroid stimulating hormone receptor (TSHR), full length (human) (UniProt P16473). Briefly: 125I-K1-18 Fab competition, TSHR coated tubes; 1 µg/mL in assay buffer.
The target of assay [17] is TSH receptor (TSHR), full length human, coated on tubes (human) (UniProt P16473). Briefly: inhibition of 125I-TSH binding to TSHR coated tubes; 0.001 µg/mL, diluted in HBD serum pool.
For assay [18], the target named is human TSH receptor (full length) coated on ELISA plate wells (human) (UniProt P16473). Briefly: TSH-biotin binding inhibition ELISA, TSHR coated wells; 1 µg/mL in assay buffer + 100 µg/mL 5B3 IgG.
Assay [19] concerns the target TSH receptor (TSHR), full length human, coated on tubes (human) (UniProt P16473). Briefly: inhibition of 125I-K1-18 IgG (competitor) binding to TSHR coated tubes; test sample at 1 µg/mL in assay buffer.
Assay [20] has the same target. Briefly: inhibition of 125I-K1-18 IgG (competitor) binding to TSHR coated tubes; test sample at 10 µg/mL in assay buffer.
The target in assay [21] is thyroid stimulating hormone receptor (full length human TSHR) (human) (UniProt P16473). Briefly: ELISA: inhibition of M22 Fab-peroxidase (competitor) binding to TSHR coated wells; 0.01 µg/mL, diluted in HBD serum pool.

Consider 5B3 IgG (antibody), for which, in [1], the % inhibition of TSH stimulation; 5B3 10 µg/mL came to 12%, the % inhibition of TSH stimulation; 5B3 100 µg/mL was found to be 2%, the Cyclic AMP produced; 5B3 10 µg/mL + TSH 3 ng/mL amounted to 56.4 pmol/mL and the Cyclic AMP produced; 5B3 100 µg/mL + TSH 3 ng/mL worked out at 62.5 pmol/mL. Moreover, in assay [1], the Mutated/wild type (%) of cyclic AMP produced; 5B3 10 µg/mL + TSH 3 ng/mL was found to be 75% and the Mutated/wild type (%) of cyclic AMP produced; 5B3 100 µg/mL + TSH 3 ng/mL worked out at 92%. Also, the Inhibition of binding (%) in assay [2] is -1.5%. For the same molecule, in [3], the Inhibition of binding (%) stood at 4.2%. The Inhibition of binding (%) in assay [4] was -1.5%. Also, in assay [5], the Inhibition of binding (%) is -12.1%. Also, in assay [6], the % inhibition of TSH-biotin binding was -6.4%. For the same molecule, the Inhibition of binding (%) in assay [7] was found to be 2.2%.
As for 9D33 IgG (antibody), the TSHR constitutive (basal) cyclic AMP activity in assay [8] worked out at 2 x basal. Besides, the Inhibition of binding (%) in [9] stood at 84.8%. This molecule registered a Mean absorbance at 405 nm (absorbance at 405 nm) in assay [10] of 0.273.
In [11], TSH (ligand) registered a Cyclic AMP produced (pmol/mL), mutated TSHR, TSH 0.01 ng/mL of 4.08 pmol/mL; a Cyclic AMP produced (pmol/mL), mutated TSHR, TSH 0.03 ng/mL of 7.18 pmol/mL; a Cyclic AMP produced (pmol/mL), mutated TSHR, TSH 0.1 ng/mL of 19.1 pmol/mL; a Cyclic AMP produced (pmol/mL), mutated TSHR, TSH 0.3 ng/mL of 51.7 pmol/mL. In [11], this molecule returned a Cyclic AMP produced (pmol/mL), mutated TSHR, TSH 1 ng/mL of 93.3 pmol/mL; a Cyclic AMP produced (pmol/mL), mutated TSHR, TSH 3 ng/mL of 106 pmol/mL; a Mutated/Wild type (%), TSH 0.01 ng/mL of 165%; a Mutated/Wild type (%), TSH 0.03 ng/mL of 155%. In assay [11], this molecule displayed a Mutated/Wild type (%), TSH 0.1 ng/mL of 109%; a Mutated/Wild type (%), TSH 0.3 ng/mL of 128%; a Mutated/Wild type (%), TSH 1 ng/mL of 101%; a Mutated/Wild type (%), TSH 3 ng/mL of 102%. In assay [12], this molecule gave a % inhibition of TSH stimulation; TSH (2) (run at the end of assay, against the first TSH sample); Experiment 1 of 19%; a % inhibition of TSH stimulation; TSH (2) (run at the end of assay, against the first TSH sample); Experiment 2 of 4%; a Cyclic AMP produced (pmol/mL), TSH 0.01 ng/mL, mutated TSHR of 2.84 pmol/mL; a Cyclic AMP produced (pmol/mL), TSH 0.03 ng/mL, mutated TSHR of 4.69 pmol/mL. In [12], this molecule gave a Cyclic AMP produced (pmol/mL), TSH 0.1 ng/mL, mutated TSHR of 11.3 pmol/mL; a Cyclic AMP produced (pmol/mL), TSH 0.3 ng/mL, mutated TSHR of 27.5 pmol/mL; a Cyclic AMP produced (pmol/mL), TSH 1 ng/mL, mutated TSHR of 51.6 pmol/mL; a Cyclic AMP produced (pmol/mL), TSH 3 ng/mL, mutated TSHR of 68 pmol/mL. For the same molecule, in assay [12], the Mutated/Wild type (%), TSH 0.01 ng/mL came out at 140%; the Mutated/Wild type (%), TSH 0.03 ng/mL is 128%; the Mutated/Wild type (%), TSH 0.1 ng/mL amounted to 117%; the Mutated/Wild type (%), TSH 0.3 ng/mL worked out at 88%. In [12], the Mutated/Wild type (%), TSH 1 ng/mL is 85%; the Mutated/Wild type (%), TSH 3 ng/mL is 82%; the Mutated/wild type (%) of cyclic AMP produced; test sample TSH (3 ng/mL); Experiment 1 was 79%; the Mutated/wild type (%) of cyclic AMP produced; test sample TSH (3 ng/mL); Experiment 2 was 92%. In assay [12], this molecule registered a Mutated/wild type (%) of cyclic AMP produced; test sample TSH (2) (3 ng/mL, run at the end of assay); Experiment 1 of 57% and a Mutated/wild type (%) of cyclic AMP produced; test sample TSH (2) (3 ng/mL, run at the end of assay); Experiment 2 of 79%. In assay [13], this molecule displayed a Cyclic AMP produced, TSH 0.01 ng/mL, Experiment 1 of 1.93 pmol/mL; a Cyclic AMP produced, TSH 0.01 ng/mL, Experiment 2 of 1.56 pmol/mL; a Cyclic AMP produced, TSH 0.03 ng/mL, Experiment 1 of 2.88 pmol/mL; a Cyclic AMP produced, TSH 0.03 ng/mL, Experiment 2 of 2.76 pmol/mL. In assay [13], this molecule yielded a Cyclic AMP produced, TSH 0.1 ng/mL, Experiment 1 of 7.51 pmol/mL; a Cyclic AMP produced, TSH 0.1 ng/mL, Experiment 2 of 7.04 pmol/mL; a Cyclic AMP produced, TSH 0.3 ng/mL, Experiment 1 of 22.3 pmol/mL; a Cyclic AMP produced, TSH 0.3 ng/mL, Experiment 2 of 17.3 pmol/mL. In assay [13], this molecule returned a Cyclic AMP produced, TSH 1 ng/mL, Experiment 1 of 45.7 pmol/mL; a Cyclic AMP produced, TSH 1 ng/mL, Experiment 2 of 49.2 pmol/mL; a Cyclic AMP produced; TSH 3 ng/mL; Experiment 1 of 54 pmol/mL; a Cyclic AMP produced; TSH 3 ng/mL; Experiment 2 of 84.7 pmol/mL. In assay [13], this molecule came in with a Mutated/Wild type (%) of cyclic AMP produced, TSH 0.01 ng/mL, Experiment 1 of 158%; a Mutated/Wild type (%) of cyclic AMP produced, TSH 0.01 ng/mL, Experiment 2 of 77%; a Mutated/Wild type (%) of cyclic AMP produced, TSH 0.03 ng/mL, Experiment 1 of 156%; a Mutated/Wild type (%) of cyclic AMP produced, TSH 0.03 ng/mL, Experiment 2 of 141%. In assay [13], this molecule had a Mutated/Wild type (%) of cyclic AMP produced, TSH 0.1 ng/mL, Experiment 1 of 154%; a Mutated/Wild type (%) of cyclic AMP produced, TSH 0.1 ng/mL, Experiment 2 of 156%; a Mutated/Wild type (%) of cyclic AMP produced, TSH 0.3 ng/mL, Experiment 1 of 128%; a Mutated/Wild type (%) of cyclic AMP produced, TSH 0.3 ng/mL, Experiment 2 of 128%. Also, in [13], the Mutated/Wild type (%) of cyclic AMP produced, TSH 1 ng/mL, Experiment 1 was 86%; the Mutated/Wild type (%) of cyclic AMP produced, TSH 1 ng/mL, Experiment 2 came out at 114%; the Mutated/wild type (%) of cyclic AMP produced; TSH 3 ng/mL; Experiment 1 stood at 76%; the Mutated/wild type (%) of cyclic AMP produced; TSH 3 ng/mL; Experiment 2 is 100%. In [14], the % inhibition of TSH stimulation; TSH (2) came to 0%, the Cyclic AMP produced; TSH 3 ng/mL turned out to be 121 pmol/mL, the Cyclic AMP produced; TSH (2) was 95.4 pmol/mL and the Mutated/wild type (%) of cyclic AMP produced; TSH 3 ng/mL was 152%. This molecule registered a Mutated/wild type (%) of cyclic AMP produced; TSH (2) in assay [14] of 107%. In assay [15], this molecule yielded a % inhibition of TSH stimulation; TSH (2) of 0%, a Cyclic AMP produced; TSH 3 ng/mL of 79.4 pmol/mL and a Cyclic AMP produced; TSH (2) of 89.1 pmol/mL.

B1: 5C9 IgG (antibody, from another filing, V domains shown)
VH: EVQLVESGGGLIQPGGSLRLSCAASGFTVSSNYMSWVRQAPGKGLEWVSVTYSGGSTSYADSVKGRFTISRDNSKNTLYLQMNSLRAEDTAVYYCARGGRYCSSISCYARSGCDYWGQGTLVTVSS
VL: AIQMTQSPSSLSASVGDRVTITCRASQSISNYLNWYQQKPGKAPKLLIYAASSLQSGVPSRFSGSGSGTDFTLTISSLQPEDFATYYCQQSYSSPSTTFGQGTKLEIK
For the molecule B1, the Inhibition of binding (%) in assay [16] is 52.5%; in assay [17] it was -8%; in [19], 48%; in [20], 65.9%; in assay [21], 0.9%. For the same molecule, the % inhibition of TSH-biotin binding in assay [18] was determined as 46.7%.

The values are drawn from patent publication US20110300138A1 (published 2011).
